Reference: US9528993B2, “Agents and methods related to screening for resistance to DR5 and reducing resistance to DR5 agonists” (The UAB Research Foundation, priority 2005, dated 2016)

Legend:
cIAP1 = molecular target: T1, cIAP1 (Homo sapiens, UniProt Q13490); experiment: Co-immunoprecipitation of DDX3 mutant with cIAP1; format: binding
T1 construct: endogenous in cells
Procedure: Anti-DDX3 or anti-TRAIL-R2 antibody was conjugated to Sepharose beads (Sigma). The composition of the TRAIL-R2 DISC was determined as follows. 5×10^6 cells (if not otherwise indicated) were treated with 500 ng/ml of TRA-8 for the indicated time at 37° C. and then lysed in immunoprecipitation-lysis buffer (20 mM Tris-HCl, pH 7.4, 150 mM NaCl, 0.2% NONIDET P40, and 10% glycerol and complete protease inhibitor cock-tail) or lysed without treatment (unstimulated condition). […] After immunoprecipitation, the beads were washed four times with lysis buffer. The beads were then washed five times with 10 mM Tris buffer and resuspended in loading buffer for SDS-PAGE and immunoblotting analyses.

[1] = system: TRA-8-resistant tumor cells; experiment: ATPLITE assay of TRA-8-resistant tumor cells transfected with DDX3ΔCARD; format: cell-based; conditions: four lines, adenoviral vector, 500 ng/ml TRA-8 overnight
Procedure: Cytotoxicity analysis of tumor cell susceptibility to TRA-8, 2E12, and TRAIL-mediated apoptosis. Cells (1,000 cells per well) were seeded into 96-well plates in triplicate with eight concentrations (double serial dilutions from 1000 ng/ml) of TRA-8, 2E12, or TRAIL. Cell viability was determined after overnight culture using an ATPLITE™ assay according to the manufacturer's instructions (Packard Instruments, Meriden, Conn.). The results are presented as the precentage of viable cells in treated wells compared to medium control wells.

T1 sequence (Q13490 whole entry): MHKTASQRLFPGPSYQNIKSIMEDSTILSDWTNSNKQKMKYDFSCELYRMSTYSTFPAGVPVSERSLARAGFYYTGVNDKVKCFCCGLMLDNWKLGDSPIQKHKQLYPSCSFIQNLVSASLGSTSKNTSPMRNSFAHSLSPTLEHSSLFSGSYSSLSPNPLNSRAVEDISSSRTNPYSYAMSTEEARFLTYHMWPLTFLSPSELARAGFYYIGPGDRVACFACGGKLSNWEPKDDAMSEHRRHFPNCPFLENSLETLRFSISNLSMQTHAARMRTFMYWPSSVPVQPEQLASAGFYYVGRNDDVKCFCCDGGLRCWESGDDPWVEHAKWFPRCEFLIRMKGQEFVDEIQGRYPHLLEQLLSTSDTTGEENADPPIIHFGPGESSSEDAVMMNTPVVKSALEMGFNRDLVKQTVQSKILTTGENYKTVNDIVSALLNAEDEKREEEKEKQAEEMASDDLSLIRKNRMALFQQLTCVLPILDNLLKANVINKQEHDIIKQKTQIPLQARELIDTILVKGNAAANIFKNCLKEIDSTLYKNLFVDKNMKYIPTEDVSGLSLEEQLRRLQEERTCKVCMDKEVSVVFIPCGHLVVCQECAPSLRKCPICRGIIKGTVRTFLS

interaction with cIAP1 (cIAP1): fails to interact with cIAP1
B1: DDX3ΔCARD: dominant negative mutant DDX3 lacking aa 1-150 (CARD-truncated DDX3) (protein)
chain: FSGGNTGINFEKYDDIPVEATGNNCPPHIESFSDVEMGEIIMGNIELTRYTRPTPVQKHAIPIIKEKRDLMACAQTGSGKTAAFLLPILSQIYSDGPGEALRAMKENGRYGRRKQYPISLVLAPTRELAVQIYEEARKFSYRSRVRPCVVYGGADIGQQIRDLERGCHLLVATPGRLVDMMERGKIGLDFCKYLVLDEADRMLDMGFEPQIRRIVEQDTMPPKGVRHTMMFSATFPKEIQMLARDFLDEYIFLAVGRVGSTSENITQKVVWVEESDKRSFLLDLLNATGKDSLTLVFVETKKGADSLEDFLYHEGYACTSIHGDRSQRDREEALHQFRSGKSPILVATAVAARGLDISNVKHVINFDLPSDIEEYVHRIGRTGRVGNLGLATSFFNERNINITKDLLDLLVEAKQEVPSWLENMAYEHHYKGSSRGRSKSSRFSGGFGARDYRQSSGASSSSFSSSRASSSRSGGGGHGSSRGFGGGGYGGFYNSDGYGGNYNSQGVDWWGN
susceptibility to TRA-8-induced apoptosis [1]: regained their susceptibility to TRA-8-induced apoptosis
